The text below walks through data of the nanobody polyreactivity screen of Harvey et al. (2022).

A short description of this series: yeast display, Sf9 membrane polyspecificity reagent, FACS + sequencing; frameworks hold sequencing errors. A digest of the protocol:
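Sorting gates, low and high (top ~1%), were placed on anti-HA fluorescence to track expression and on streptavidin fluorescence to track reagent binding. A clone's polyreactivity label is taken from the gate it came out of. The reagent was 10% biotinylated, detergent-solubilized Sf9 membrane, applied for 1 hour at 4 °C to galactose-induced yeast display cells.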
Turning to “QVQLVESGGGLVQAGGSLSLSCAASGSIFYGNAMGWYRQEPGKERELVAAITYGTSSTYYADSVKGRFTISRDKAKNTVYLQMNSLKPEDTAVYYCAADAKSHPTTRNYVGSPMDYWGQGTQVTVSS”, the “polyreactivity (PSR sort gate)” value was “low polyreactivity”.
Turning to “QVQLVESGGGLVQAGGSLSLSCAASGSIIARYAMGWYRQAPGKERELVAAITWSATSTYYADSVKGRFTISRDNAKNTVYLQMTSLKPEDTAVYYCNAGASYFLVISQSRRDYWGQGTQVTVSS”, the “polyreactivity (PSR sort gate)” value is reported as “low polyreactivity”.
Regarding “QVQLVESGGGLVQAGGSLSLSCAASGSTFDRYAMGWYRQAPGKERELVAAISHSGGRTYYADSVKGRFTISRDNAKNTVYLQMNSLKPEDTAVFYCAAKSRSGTEAAYGYWGQGTQVTVSS”, the “polyreactivity (PSR sort gate)” value is “low polyreactivity”.
On to “QVQLVESGGGLVQAGGSLSLSCAASGSTFFSYAMGWYRQAPGKEREFVAAITYSSGRTYYADSVKGRFTISRDNAKNTVYLQMNSLKPEDTAVYYCATTGFVWGRGYDYWGQGTQVTVSS”, for which the “polyreactivity (PSR sort gate)” value was “high polyreactivity”.
As to “QVQLVESGGGLVQAGGSLSLSCAASGSTFGDYAMGWYRQAPGKERELVAAITSSGGRTFYADSVKGRFTISRDNAKNTVYLQMNSLKPEDHAVYYCAAEFTDPPSEYEYWGQGTQVTVSS”, the “polyreactivity (PSR sort gate)” value is “low polyreactivity”.
The result for “QVQLVESGGGLVQAGGSLSLSCAASGSTFGSNAKGWYRQAPGKARELVAAISSDGSTNYADSVKGRFTISRDNAKNTVYLQMNSLKPEDTAVYYCAADDRHRYNIYDYWGQGTQVTLSS” reads “low polyreactivity”; that for “QVQLVESGGGLVQAGGSLSLSCAASGSTFRGYAMGWDRQAPGKERELVADSTYYADSVKGRFTISRDNAKNTVYFQMNCLKPEDTAVYYCNADIAGWGSQDGTDDYWGLGTQVTVSS”, “high polyreactivity”.
Then “QVQLVESGGGLVQAGGSLSLSCAASGSTFSRYGMGGYRQAPGKERELVAAISYSGGGTYYADSVKGRFTISRDNAKNTVYLQMNSQKREDNAVYYCNVEYPKRANLSDYWGQGTQVTVSS”, with “high polyreactivity”.
Regarding “QVQLVESGGGLVQAGGSLSLSCAASGSTFSVYAMGWYRQAPGKERELVAAITRSGGSTYYADSVKGRFTISRDNAKNTVYLQMNSLIAEDSAVYYCNAEWYYVWFITTYWLDQYGYWGQGTQVTVSS”, the “polyreactivity (PSR sort gate)” value is given as “low polyreactivity”.
Consider “QVQLVESGGGLVQAGGSLSLSCAASGSTFVPNLMGWYRQAPGKERELVAAITWSGGTTTFYADSVKGRFTISRDNAKNTVYLQMNSLKPEDTAVYYCAVTRGGQYYPYYYWGQGTQVTVSS”, for which the “polyreactivity (PSR sort gate)” value is “low polyreactivity”.
Then “QVQLVESGGGLVQAGGSLSLSCAASGSTFVPYAMGWYRPAPGKERELVAAISSTGGSTYYADSVKGRFTISRDNAKNTVYLQMNSLKAEDTAVYYCNALAKIRYGQINKGYYWGQGTQVTVSS”, with “high polyreactivity”; and “QVQLVESGGGLVQAGGSLSLSCAASGSTFVVNAMGWYRQAPGKERELVAAITQSGGSTFYADSVKGRFPISRDNAKNTVYLQMNSLKPEDTAVYYWGQGTQVTVSS”, with “low polyreactivity”; and “QVQLVESGGGLVQAGGSLSLSCAASGSTFYANAMGWYRQAPGKEREFVAAISYNGGSTYYADSVKGRFTISRDNAKNTVYFQMNSLKPEDTAVYYCNVDYDYPYYEVDYWGQGTQVTVSS”, with “low polyreactivity”.
The result for “QVQLVESGGGLVQAGGSLSLSCAASGYIFAVYAMGWYRQAPGKEREFVAVITWRGGSTYYADSVKGRFTISRDNAKNTVYLQMNSLKPEDTAVYYCAARWHFLTSSRFDYWGQGTQVTVSS” reads “high polyreactivity”; that for “QVQLVESGGGLVQAGGSLSLSCAASGYIFRYYAMGSYRQAPGKEREFGAAISWRGGSTYYADSVKGRFTISRDNAKNTVYLQMNRLKPEDTEFYYCAAGYFSFFGHYNAGLDYWGQGTQVTVSS”, “high polyreactivity”.
The result for “QVQLVESGGGLVQAGGSLSLSCAASGYNFYKNAMGWYRPAPGKERELVAAISTRGGSTYYADSVKGRFTISRDNAQITVYLPMNSLKPEDTAVYYCAASQHRRDWGQGTQVTVSS” reads “high polyreactivity”.
“QVQLVESGGGLVQAGGSLSLSCAASVRIFVYNVMGWYRQAPGKERELVAAISWGTGSTYADSVKGRFTISRDNAKNTVYLQMNSLKPEDTAVYYCAAAADYYYDHDYWGQGTQVTVSS”: the “polyreactivity (PSR sort gate)” value is “low polyreactivity”.
As to “QVQLVESGGGLVQAGGSLSLSCAAYGFTFWKYAMGRSRQAPGKESELVAAISVSGGRTYYADSVKGRFTISGDNAKNTVYLQINSLKPEDTASYYVATSFRNGWGSYYYWGQGTQVTVSS”, the “polyreactivity (PSR sort gate)” value is “high polyreactivity”.
Then “QVQLVESGGGLVQAGGSLSLSCADSGSTFPKYAMGWYRQAPGKERELVASISVTTGSTYYADTVKGRFTISRDNAKNTVYLHMNSLKPVDTAVYYCAKRTYSRKLRGAYNYWGQGTQVTVSS”, with “high polyreactivity”; and “QVQLVESGGGLVQAGGSLSLSCDASGSIFYYYAMGWYRQAPGKEREMVASITSSGGTTSYADSVKGRFTISRDNAKNTVYLQMNSLKPEDTAVYYCNAQVYRYRICYDFWGEGTQVTVSS”, with “low polyreactivity”.
The result for “QVQLVESGGGLVQAGGSLSLSCDASGSIIQGYAMGWYRQAPGKERELVAAISWSGTSTYYADSVKGRFTISRDNAKNTVYLQMNSLKPEDTEVYYCATDYYYYTAEYEYWGQGTQVTVSS” reads “high polyreactivity”; that for “QVQLVESGGGLVQAGGSLSLSCPASGFTFPPYTMGWSRQAPGKEREFVATITKSGGSTYYADSVKGRFTISRDNAKNTVYLQMNSLKPEDTAVYYCNVVWQYSTYVRYNYWGQGTQVTVSS”, “low polyreactivity”.
The result for “QVQLVESGGGLVQAGGSLSLSSSASGRTFKGNAMGWYIQAPGKERELVAVITGSGGSTYYADSVKGRFTISRDNAKNTVYLQMNSLKPEDTAVYYCNKKLQRRSWYDYWGQGTQVTVSS” reads “low polyreactivity”; that for “QVQLVESGGGLVQAGGSNRLSCAASGLTSFRYTMGWYRQAPGKDRELVAGISGSRGRTYYADSVKGRFTISRDNAKNTVYLQMNCMKAVDTAVYDCAAGWYTSHAKGKGGYWGQGTQVTVSS”, “high polyreactivity”; that for “QVQLVESGGGLVQAGGSNRLSCAASGYIFDIYAMGCYRQAPVKERELVAVITRSGGGTYYADSVKGRFTISRDNAKNSVYLQMNSLKPEDTAVYYCAAESYVYGGSDYDYWGQGTQVTVSS”, “low polyreactivity”.
As to “QVQLVESGGGLVQAGGSRLSCAASGLIFIWYTMGWYRQAPGKERELVAAIDSSGGNTYYADSVKGRFTISRDNAKNTVYLQMNSLKPEDTAVYYCAKDVGHGAGNLMGYWGQGTQVTVSS”, the “polyreactivity (PSR sort gate)” value is “low polyreactivity”.
The result for “QVQLVESGGGLVQAGGSRRLSCAASGCILRDNAMGWYRQAPGKEREVVAAISYSGDLTYYADSVKGRFTISRDNAKNTVYLQMNSLIPEDTAVYDCAALYPKVRGYRSDDLWGQGTQVTVSS” reads “high polyreactivity”; that for “QVQLVESGGGLVQAGGSRRLSCAASGFFFRTYSMGWYRQAPGTERELVAAISSSSGSTYYADSVKGRFTISRDNAKNTVYLQMNSLKPEDTAVYYCAAYSLSQKPRGYNYWGQGTQVTVSS”, “high polyreactivity”.
Take “QVQLVESGGGLVQAGGSRRLSCAASGGIFNYYTMGWYRQATGKERELVAAINSSGGNTHYADSVKGRFTISRDNAKNTVYLQMYSLKPEDTAVYYCNADARSVWFYRVDYWGQGTQVTVSS”: the “polyreactivity (PSR sort gate)” value is recorded as “low polyreactivity”.
With “QVQLVESGGGLVQAGGSRRLSCAASGNIFPQNGMGWYRQAPAKERELVAAITRGGSTYYADSVKGRFTISRDNAKNTVYVQMHSLKPEDTAVYDCAAVRPQYRRRTKANPYNYWGQGTQVTVSS”, the “polyreactivity (PSR sort gate)” value is “high polyreactivity”.
